Legend:
Assay in all cases: cell-based or functional assay
[1] = biological target: T1, hMPV F protein of hMPV CAN/97-83 (genotype A) (human metapneumovirus, UniProt Q6WB98 19-539)
[2] = biological target: T2, hMPV F protein of hMPV TN/93-32 (genotype B) (human metapneumovirus)
[3] = biological target: T1, hMPV F protein of hMPV CAN/97-83 …; remark: listed apart in the source
[4] = biological target: T2, hMPV F protein of hMPV TN/93-32 …; remark: listed apart in the source

T1 sequence (Q6WB98 19-539): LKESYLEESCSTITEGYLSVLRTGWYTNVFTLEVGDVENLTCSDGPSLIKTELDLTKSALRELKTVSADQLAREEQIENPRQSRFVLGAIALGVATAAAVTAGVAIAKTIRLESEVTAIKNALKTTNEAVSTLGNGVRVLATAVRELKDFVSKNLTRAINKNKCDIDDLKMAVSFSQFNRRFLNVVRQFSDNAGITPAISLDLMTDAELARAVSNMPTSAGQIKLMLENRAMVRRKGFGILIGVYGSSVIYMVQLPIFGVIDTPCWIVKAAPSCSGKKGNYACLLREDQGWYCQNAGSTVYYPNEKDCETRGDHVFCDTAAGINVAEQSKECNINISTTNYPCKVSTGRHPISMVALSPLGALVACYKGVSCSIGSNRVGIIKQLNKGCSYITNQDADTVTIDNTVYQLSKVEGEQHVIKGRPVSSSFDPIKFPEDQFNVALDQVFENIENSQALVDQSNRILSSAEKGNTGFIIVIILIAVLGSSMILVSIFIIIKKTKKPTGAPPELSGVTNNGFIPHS

B1: MPV467 (antibody, V domains shown)
VH: EVQLVESGGGVVRPGTSLRVSCAAFDFNFRDYGMHWVRQAPGKGLEWVAGIWYDGSNKDYADSVKGRFTISRDNSQNTLYLQMNSLRVEDTAVYYCARDPRTHREGALSHFDSWGQGTLVTVSS
VL: PNELTQDPAVSVALGQTVRITCQGDSLRNYFAGWYQQKPGQAPLLVLYGENIRPSGIPDRFSGSSSGNTVSLTITGAQAEDEADYYCNSRDNSGNHWVFGGGTRLTVL
- neutralizing activity, plaque-reduction assay [1]: < 20 ng/mL
- neutralizing activity, plaque-reduction assay [2]: < 1 ng/mL
- IC50, plaque-reduction neutralization of hMPV CAN/97-83 [3]: 5 ng/mL
- IC50, plaque-reduction neutralization of hMPV TN/93-32 [4]: 0.6 ng/mL
